Measured values: US20100150924A1 (published 2010)
Values belong to the binder of their own block, whether it stands above or below them.

Key:
[1] = target: T1, endogenous gliomedin on cultured rat Schwann cells (rat, UniProt Q80WL1 1-549); experiment: co-clustering on rat Schwann cells after aggregation of Necl1-Fc with a secondary antibody to human Fc
T1 construct: whole, on cells; also called Gldn
T1 sequence (looked up): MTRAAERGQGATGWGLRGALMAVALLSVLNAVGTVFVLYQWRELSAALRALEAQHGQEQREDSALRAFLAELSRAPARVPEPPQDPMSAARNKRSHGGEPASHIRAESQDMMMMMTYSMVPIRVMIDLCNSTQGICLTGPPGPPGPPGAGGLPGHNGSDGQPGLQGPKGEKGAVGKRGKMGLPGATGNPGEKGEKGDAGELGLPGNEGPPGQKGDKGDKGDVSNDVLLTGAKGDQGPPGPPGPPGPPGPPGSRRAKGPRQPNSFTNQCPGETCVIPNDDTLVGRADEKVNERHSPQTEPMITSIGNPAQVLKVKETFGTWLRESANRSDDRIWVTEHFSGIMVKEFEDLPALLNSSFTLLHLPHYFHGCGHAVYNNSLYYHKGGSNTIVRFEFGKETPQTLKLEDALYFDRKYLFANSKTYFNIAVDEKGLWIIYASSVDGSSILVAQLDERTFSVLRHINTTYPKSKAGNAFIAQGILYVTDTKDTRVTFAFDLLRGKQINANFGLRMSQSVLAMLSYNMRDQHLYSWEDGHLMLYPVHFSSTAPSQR
Protocol: (§1) Binding experiments were done by incubating the cells with medium containing different the Fc-fusions proteins pre-incubated with anti human Fc-Cy3 as described previously (Eshed et al., 2005). For clustering experiments, purified DRG-neurons or isolated Schwann cells were incubated with medium containing the respective Fc-fusion protein as described above, washed once and grown for additional 24 (DRG) or 4 hours (Schwann) before fixing. Fc-perturbation experiments were preformed by adding […] purified proteins to the medium of dissociated DRG cultures 2 days before the induction of myelination. Fresh medium containing the Fc-fusion proteins was replaced every second day and the cultures were fixed and stained after 11-12 days of myelination.
To further determine whether Necl4 is the Schwann cell receptor for axonal Necls, we examined the ability of Necl1-Fc and Necl3-Fc to bind Schwann cells that were transfected with Necl4-specific siRNAs to block its expression (FIG. 10B). In contrast to Schwann cells transfected with a control siRNA, down-regulation of Necl4 in Schwann cells by siRNA abolished the binding of Necl1-Fc and Necl3-Fc. […] In a reciprocal set of experiments, reduction of Necl1 expression in DRG neurons by transfection of siRNA abolished the binding of Necl4-Fc (FIG. 11).

[2] = target: T2, endogenous neurofascin on cultured DRG neurons (rat, UniProt P97685 25-1240); experiment: co-clustering on DRG neurons after aggregation of Necl4-Fc
T2 construct: whole, on cells
T2 sequence (looked up): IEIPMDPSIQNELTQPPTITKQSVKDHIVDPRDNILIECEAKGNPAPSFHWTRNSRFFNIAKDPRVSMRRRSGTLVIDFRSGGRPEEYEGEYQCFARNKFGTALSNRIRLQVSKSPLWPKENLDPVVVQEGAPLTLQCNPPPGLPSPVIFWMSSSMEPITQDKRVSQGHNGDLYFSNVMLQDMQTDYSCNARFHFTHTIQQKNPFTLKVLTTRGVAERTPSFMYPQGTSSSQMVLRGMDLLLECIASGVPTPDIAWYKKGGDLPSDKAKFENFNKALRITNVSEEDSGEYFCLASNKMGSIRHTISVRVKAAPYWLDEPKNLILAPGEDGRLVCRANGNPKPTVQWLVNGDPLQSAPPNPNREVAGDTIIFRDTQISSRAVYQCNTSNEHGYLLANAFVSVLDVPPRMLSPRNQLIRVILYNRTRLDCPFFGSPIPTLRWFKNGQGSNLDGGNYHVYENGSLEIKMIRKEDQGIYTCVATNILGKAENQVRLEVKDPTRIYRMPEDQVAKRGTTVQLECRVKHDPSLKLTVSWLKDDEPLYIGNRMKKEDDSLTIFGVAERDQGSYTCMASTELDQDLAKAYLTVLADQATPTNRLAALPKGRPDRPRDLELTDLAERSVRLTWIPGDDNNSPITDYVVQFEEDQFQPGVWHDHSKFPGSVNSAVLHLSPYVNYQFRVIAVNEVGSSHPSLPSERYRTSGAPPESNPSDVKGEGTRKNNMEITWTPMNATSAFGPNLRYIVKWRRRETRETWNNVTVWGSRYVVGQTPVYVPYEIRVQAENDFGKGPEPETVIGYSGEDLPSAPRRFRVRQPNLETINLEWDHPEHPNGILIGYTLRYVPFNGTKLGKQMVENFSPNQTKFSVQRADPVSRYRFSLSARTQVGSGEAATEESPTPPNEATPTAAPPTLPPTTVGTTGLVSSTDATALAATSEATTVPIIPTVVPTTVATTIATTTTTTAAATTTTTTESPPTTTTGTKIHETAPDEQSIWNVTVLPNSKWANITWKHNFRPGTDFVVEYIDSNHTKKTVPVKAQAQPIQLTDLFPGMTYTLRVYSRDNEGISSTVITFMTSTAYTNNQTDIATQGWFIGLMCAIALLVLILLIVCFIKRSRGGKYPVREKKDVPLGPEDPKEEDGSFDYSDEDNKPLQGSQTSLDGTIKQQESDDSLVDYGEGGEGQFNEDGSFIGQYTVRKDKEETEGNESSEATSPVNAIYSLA
Protocol: as §1

binding result [1]: no binding
B1: Necl1-Fc (extracellular domain of Necl1 fused to the constant region of human IgG1) (Fc fusion)
chain: NLSQDGYWQEQDLELGTPAPLEEALSSTVWSNPDLLASQDSQPWTSDETVVAGGTVVLKCQVKDHEDSSLQWSNPAQQTLYFGEKRALRDNRIQLVSSTPHELSISISNVALADEGEYTCSIFTMPVRTAKSLVTVLGIPQKPIITGYKSSLREKETATLNCQSSGSKPAAQLAWRKGDQELHGDQTRIQEDPNGKTFTVSSSVSFQVTRDDDGANVVCSVNHESLKGADRSTSQRIEVLYTPTAMIRPEPAHPREGQKLLLHCEGRGNPVPQQYVWVKEGSEPPLKMTQESALIFPFLNKSDSGTYGCTATSNMGSYTAYFTLNVNDPSPVPSSSST
notes: Produced in HEK 293T cells; also called soluble Necl1; Nel1-Fc; not shown: constant region (Fc) of human IgG1

binding result [2]: no binding
B2: Necl4-Fc (extracellular domain of Necl4 fused to the constant region of human IgG1) (Fc fusion)
chain: QEVQTENVTVAEGGVAEITCRLHQYDGSIVVIQNPARQTLFFNGTRALKDERFQLEEFSPRRVRIRLSDARLEDEGGYFCQLYTEDTHHQIATLTVLVAPENPVVEVREQAVEGGEVELSCLVPRSRPAAVLRWYRDRKELKGVSSGQENGKVWSVASTVRFRVDRKDDGGIVICEAQNQALPSGHSKQTQYVLDVQYSPTARIHASQAVVREGDTLVLTCAVTGNPRPNQIRWNRGNESLPERAEAVGETLTLPGLVSADNGTYTCEAANKHGHARALYVLVVYDPGAVVEAQTSVPY
notes: also called soluble Necl-4; soluble Necl4; not shown: constant region (Fc) of human IgG1
